Test results taken from patent publication US9481899B2, “Methods and compositions for producing hydrocarbons” (priority 2008, dated 2016).
Like-named read-outs stand apart in the source and are kept apart here.

T1: PCC7942_orf1594 protein (Synechococcus elongatus, UniProt Q54765)
T1 construct: made in house; host or cells: E. coli BL21 (DE3)
T1 sequence (Q54765 1-341): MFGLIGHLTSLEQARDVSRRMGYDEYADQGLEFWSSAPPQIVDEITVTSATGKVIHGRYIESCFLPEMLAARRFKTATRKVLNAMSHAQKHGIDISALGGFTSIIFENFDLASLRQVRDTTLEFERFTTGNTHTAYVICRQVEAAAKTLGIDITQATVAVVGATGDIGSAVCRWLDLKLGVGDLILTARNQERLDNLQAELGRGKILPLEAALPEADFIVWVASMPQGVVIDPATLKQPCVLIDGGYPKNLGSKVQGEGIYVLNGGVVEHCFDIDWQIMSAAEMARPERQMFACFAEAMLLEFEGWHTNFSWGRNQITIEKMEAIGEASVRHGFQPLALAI

B1: SEQ ID NO: 5: Nostoc punctiforme PCC73102 Npun02004178, putative decarbonylase (protein)
chain: MQQLTDQSKELDFKSETYKDAYSRINAIVIEGEQEAHENYITLAQLLPESHDELIRLSKMESRHKKGFEACGRNLAVTPDLQFAKEFFSGLHQNFQTAAAEGKVVTCLLIQSLIIECFAIAAYNIYIPVADDFARKITEGVVKEEYSHLNFGEVWLKEHFAESKAELELANRQNLPIVWKMLNQVEGDAHTMAMEKDALVEDFMIQYGEALSNIGFSTRDIMRLSAYGLIGA
modifications: Nostoc punctiforme
notes: Nostoc punctiforme PCC73102 Npun02004178, putative decarbonylase
B2: SEQ ID NO: 7: Nostoc sp. PCC7210 alr5283, putative decarbonylase (protein, listed as Nostoc sp.)
chain: MQQVAADLEIDFKSEKYKDAYSRINAIVIEGEQEAYENYIQLSQLLPDDKEDLIRLSKMESRHKKGFEACGRNLQVSPDMEFAKEFFAGLHGNFQKAAAEGKIVTCLLIQSLIIECFAIAAYNIYIPVADDFARKITEGVVKDEYSHLNFGEVWLQKNFAQSKAELEEANRHNLPIVWKMLNQVADDAAVLAMEKEALVEDFMIQYGEALSNIGFTTRDIMRMSAYGLTAA
B3: SEQ ID NO: 9: Acaryochloris marina MBIC11017 AM1_4041, putative decarbonylase (protein, listed as Acaryochloris marina)
chain: MPQTQAISEIDFYSDTYKDAYSRIDGIVIEGEQEAHENYIRLGEMLPEHQDDFIRLSKMEARHKKGFEACGRNLKVTCDLDFARRFFSDLHKNFQDAAAEDKVPTCLVIQSLIIECFAIAAYNIYIPVADDFARKITESVVKDEYQHLNYGEEWLKAHFDDVKAEIQEANRKNLPIVWRMLNEVDKDAAVLGMEKEALVEDFMIQYGEALSNIGFSTGEIMRMSAYGLVAA
B4: SEQ ID NO: 15: Gloeobacter violaceus PCC7421 gll3146, putative decarbonylase (protein, listed as Gloeobacter violaceus)
chain: VNRTAPSSAALDYRSDTYRDAYSRINAIVLEGEREAHANYLTLAEMLPDHAEALKKLAAMENRHFKGFQSCARNLEVTPDDPFARAYFEQLDGNFQQAAAEGDLTTCMVIQALIIECFAIAAYNVYIPVADAFARKVTEGVVKDEYTHLNFGQQWLKERFVTVREGIERANAQNLPIVWRMLNAVEADTEVLQMDKEAIVEDFMIAYGEALGDIGFSMRDVMKMSARGLASAPRQ

Key:
PCC7942_orf1594 protein = target: T1, PCC7942_orf1594 protein; assay: Acyl-ACP or acyl-CoA reductase enzyme assay; format: biochemical, Synechococcus elongatus PCC7942; details: for reduction to fatty aldehyde: 10 μM enzyme, MgCl2, NADPH, 1 h at 37° C.
Procedure: The genomic DNA encoding S. elongatus […] orf1594 (SEQ ID NO:65) was cloned into the NcoI and XhoI sites of vector pET-28b under the control of the T7 promoter. The resulting PCC7942_orf1594 protein contained a C-terminal His-tag. An E. coli BL21 strain (DE3) (Invitrogen) was transformed with the plasmid and PCC7942_orf1594 protein was expressed and purified as described in Example 22. The protein solution was stored in the following buffer: 50 mM sodium phosphate, pH 7.5, 100 mM NaCl, 1 mM THP, 10% glycerol. Protein concentration was determined using the Bradford assay (Biorad). 2 mg/mL of PCC7942_orf1594 protein was obtained.
To test PCC7942_orf1594 protein for acyl-ACP or acyl-CoA reductase activity, the following enzyme assays were set-up. 100 μL reactions were set-up in 50 mM Tris-HCl buffer at pH 7.5 with the following components at their respective final concentrations: 10 μM of purified PCC7942_orf1594 protein, 0.01-1 mM acyl-CoA or acyl-ACP, 2 mM MgCl2, 0.2-2 mM NADPH. The reactions were incubated for 1 h at 37° C. and where stopped by adding 100 μL ethyl acetate (containing 5 mg/l 1-octadecene as internal standard). Samples were vortexed for 15 min and centrifuged at max speed for 3 min for phase separation. 80 μL of the top layer were transferred into GC glass vials and analyzed by GC/MS as described in Example 26. The amount of aldehyde formed was calculated based on the internal standard.
Next, the stereospecific hydride transfer from NADPH to a fatty aldehyde catalyzed by PCC7942_orf1594 was examined. Deutero-NADPH was prepared according to the following protocol. 5 mg of NADP and 3.6 mg of D-glucose-1-d was added to 2.5 mL of 50 mM sodium phosphate buffer (pH 7.0). Enzymatic production of labeled NADPH was initiated by the addition of 5 units of glucose dehydrogenase from either Bacillus megaterium (USB Corporation) for the production of R-(4-^2H)NADPH or Thermoplasma acidophilum (Sigma) for the production of S-(4-^2H)NADPH. The reaction was incubated for 15 min at 37° C., centrifuge-filtered using a 10 KDa MWCO Amicon Ultra centrifuge filter (Millipore), flash frozen on dry ice, and stored at −80° C.
The in vitro assay reaction contained 50 mM Tris-HCl (pH 7.5), 10 μM of purified PCC7942_orf1594 protein, 1 mM octadecanoyl-CoA, 2 mM MgCl2, and 50 μL deutero-NADPH (prepared as described above) in a total volume of 100 μL. After a 1 h incubation, the product of the enzymatic reaction was extracted and analyzed as described above. The resulting fatty aldehyde detected by GC/MS was octadecanal (see FIG. 34). Because hydride transfer from NADPH is stereospecific, both R-(4-^2H)NADPH and S-(4-^2H)NADPH were synthesized.

E. coli MG1655 = assay: Coexpression of decarbonylase and aldehyde-generating enzyme in E. coli, GC-MS of hydrocarbons; format: cell-based; details: for Production of Alkanes and Alkenes: alkane/alkene biosynthetic polypeptide coexpressed in E. coli with the aldehyde biosynthetic polypeptide of the same table row; for fatty aldehyde decarbonylase activity in E. coli: cotransformed with S. elongatus PCC7942_1594 into E. coli MG1655, M9 minimal media, 37° C.
Text: Seven cyanobacteria, whose complete genome sequences are publicly available, were selected for verification and/or detection of alkane biosynthesis: Synechococcus elongatus PCC7942, Synechococcus elongatus PCC6301, Anabaena variabilis ATCC29413, Synechocystis sp. PCC6803, Nostoc punctiforme PCC73102, Gloeobacter violaceus ATCC 29082, and Prochlorococcus marinus CCMP1986. Only the first three cyanobacterial strains from this list had previously been reported to contain alkanes (Han et al., J. Am. Chem. Soc. 91:5156-5159 (1969); Fehler et al., Biochem. 9:418-422 (1970)). The strains were grown photoautotrophically in shake flasks in 100 mL of the appropriate media (listed in Table 8) for 3-7 days at 30° C. at a light intensity of approximately 3,500 lux. Cells were extracted for alkane detection as follows: cells from 1 mL culture volume were centrifuged for 1 min at 13,000 rpm, the cell pellets were resuspended in methanol, vortexed for 1 min and then sonicated for 30 min. After centrifugation for 3 min at 13,000 rpm, the supernatants were transferred to fresh vials and analyzed by GC-MS. The samples were analyzed on either 30 m DP-5 capillary column (0.25 mm internal diameter) or a 30 m high temperature DP-5 capillary column (0.25 mm internal diameter) using the following method.
After a 1 μL splitless injection (inlet temperature held at 300° C.) onto the GC/MS column, the oven was held at 100° C. for 3 mins. The temperature was ramped up to 320° C. at a rate of 20° C./min. The oven was held at 320° C. for an additional 5 min. The flow rate of the carrier gas helium was 1.3 mL/min. The MS quadrapole scanned from 50 to 550 m/z. Retention times and fragmentation patterns of product peaks were compared with authentic references to confirm peak identity.
The genomic DNA encoding Synechococcus elongatus PCC7942 orf1594 (YP_400611; putative aldehyde-generating enzyme) (SEQ ID NO:65) was amplified and cloned into the NcoI and EcoRI sites of vector OP-80 (pCL1920 derivative) under the control of the Ptrc promoter. The resulting construct (“OP80-PCC7942_1594”) was transformed into E. coli MG1655 and the cells were grown at 37° C. in M9 minimal media with 1% (w/v) glucose as carbon source and supplemented with 100 μg/mL spectinomycin. When the culture reached OD600 of 0.8-1.0, it was induced with 1 mM IPTG and cells were grown for an additional 18-20 h at 37° C. Cells from 0.5 mL of culture were extracted with 0.5 mL of ethyl acetate. After sonication for 60 min, the sample was centrifuged at 15,000 rpm for 5 min. The solvent layer was analyzed by GC-MS as described in Example 1.
The genomic DNA encoding Synechococcus elongatus PCC7942 orf1593 (YP_400610; putative decarbonylase) (SEQ ID NO:1) was amplified and cloned into the NdeI and XhoI sites of vector OP-183 (pACYC derivative) under the control of the Ptrc promoter. The resulting construct was cotransformed with OP80-PCC7942_1594 into E. coli MG1655 and the cells were grown at 37° C. in M9 minimal media supplemented with 100 μg/mL spectinomycin and 100 μg/mL carbenicillin. The cells were cultured and extracted as in Example 3 and analyzed by GC-MS as described in Example 1. […]

[1] = test system: E. coli MG1655 ΔfadD lacZ::Ptrc-′tesA; assay: Decarbonylase expression in fatty aldehyde-producing E. coli strain expressing MSMEG_5739; format: cell-based; details: coexpressed with M. smegmatis carboxylic acid reductase MSMEG_5739
[2] = in the presence of 2 mM NADPH, read-out: Km for the reduction

Row | Molecule | reduction to fatty aldehyde (PCC7942_orf1594 protein) | Production of Alkanes and Alkenes (E. coli MG1655) | fatty aldehyde decarbonylase activity in E. coli (E. coli MG1655) | conversion of fatty aldehydes provided by MSMEG_5739 to alkanes [1] | also measured
1 | NC(=O)C1=CN([C@@H]2O[C@H](COP(=O)(O)OP(=O)(O)OC[C@H]3O[C@@H](n4cnc5c(N)ncnc54)[C@H](O)[C@@H]3O)[C@@H](O)[C@H]2O)C=CC1 [NADH] | – | – | – | – | support of reductase activity as electron donor (PCC7942_orf1594 protein; octadecanoyl-CoA, Mg2+): did not support reductase activity
2 | [2H]C1C=CN(C2OC(COP(=O)(O)OP(=O)(O)OCC3OC(n4cnc5c(N)ncnc54)C(OP(=O)(O)O)C3O)C(O)C2O)C=C1C(N)=O (stereo not drawn) [S-(4-^2H)NADPH] | – | – | – | – | stereospecific hydride transfer to fatty aldehyde (PCC7942_orf1594 protein; 1 mM octadecanoyl-CoA, deutero-NADPH, 1 h): Octadecanal with a plus one unit mass was observed
3 | CCCCCCCCCCCCCCCCCC(=O)SCCNC(=O)CCNC(=O)[C@H](O)C(C)(C)COP(=O)(O)OP(=O)(O)OC[C@H]1O[C@@H](n2cnc3c(N)ncnc32)[C@H](O)[C@@H]1OP(=O)(O)O [octadecanoyl-CoA] | able to reduce | – | – | – | –
4 | NADPH | – | – | – | – | Km (PCC7942_orf1594 protein; in the presence of 0.5 mM octadecanoyl-CoA, read-out: Km value for NADPH): 400 ± 80 µM
5 | octadecenoyl-ACP | able to reduce | – | – | – | Km (PCC7942_orf1594 protein; [2]): 7.8 ± 2 µM
6 | octadecenoyl-CoA | able to reduce | – | – | – | Km (PCC7942_orf1594 protein; [2]): 82 ± 22 µM
7 | B1 | – | yes | active fatty aldehyde decarbonylase | converts tetradecanal, hexadecenal and hexadecanal provided by the carboxylic acid reductase MSMEG_5739 to tridecane, pentadecene and pentadecane | –
8 | B2 | – | yes | active fatty aldehyde decarbonylase | converted fatty aldehydes provided by MSMEG_5739 to the corresponding alkanes | –
9 | B3 | – | yes | active fatty aldehyde decarbonylase | converted fatty aldehydes provided by MSMEG_5739 to the corresponding alkanes | –
10 | B4 | – | yes | active fatty aldehyde decarbonylase | converted fatty aldehydes provided by MSMEG_5739 to the corresponding alkanes | –
